One series concerns the target T1, p63-DBD (UniProt Q9H3D4).
T1 sequence: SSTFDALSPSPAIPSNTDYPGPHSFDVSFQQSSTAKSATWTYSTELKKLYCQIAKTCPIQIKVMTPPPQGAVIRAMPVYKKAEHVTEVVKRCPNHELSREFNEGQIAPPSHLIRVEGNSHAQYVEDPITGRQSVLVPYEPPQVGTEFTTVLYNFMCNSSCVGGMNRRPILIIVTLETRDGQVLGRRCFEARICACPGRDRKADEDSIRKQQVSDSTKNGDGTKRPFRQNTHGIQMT
The experiment in a line: fluorescence polarization. Particulars: FP: 100 nM 5'-fluorescein dsDNA, 10 mM sodium phosphate pH 7.2, 1 mM DTT, temperature not stated; NMR: 1 mM sodium phosphate pH 7.2, 100 mM NaCl, 5 mM DTT ….

The next series addresses p53 DBD (Homo sapiens) (UniProt P04637). The settings on record: cited from earlier work.
Series [1] concerns the target fluorescein-labeled BclxLΔTM (human) (UniProt Q07817). The series can be described thus: fluorescence polarisation; 100 nM N-terminally fluorescein-labeled BclxLΔTM titrated with increasing amounts of p63-DBD; 10 mM sodium phosphate pH 7.2, 1 mM DTT; one-site or cooperative binding model; triplicate.

Broadly, the Kd is the constant that tells how readily two partners part at equilibrium.

Chain of BclxL (Q07817 whole entry): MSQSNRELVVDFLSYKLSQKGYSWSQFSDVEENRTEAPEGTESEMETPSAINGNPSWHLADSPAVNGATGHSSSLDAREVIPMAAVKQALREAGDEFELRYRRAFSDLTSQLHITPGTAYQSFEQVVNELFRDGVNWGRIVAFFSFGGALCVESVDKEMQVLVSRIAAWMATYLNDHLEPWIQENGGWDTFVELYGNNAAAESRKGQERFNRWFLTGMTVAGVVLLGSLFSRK
Chain of p53 DBD (Homo sapiens) (P04637 94-312): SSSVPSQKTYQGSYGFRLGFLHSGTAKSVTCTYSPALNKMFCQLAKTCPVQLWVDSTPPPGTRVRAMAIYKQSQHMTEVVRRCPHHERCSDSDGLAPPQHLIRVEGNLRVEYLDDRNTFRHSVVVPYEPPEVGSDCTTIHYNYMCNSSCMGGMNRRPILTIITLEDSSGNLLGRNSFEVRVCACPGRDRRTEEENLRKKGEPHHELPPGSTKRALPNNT
Chain of fluorescein-labeled BclxLΔTM (human) (Q07817 1-212, stated change not applied): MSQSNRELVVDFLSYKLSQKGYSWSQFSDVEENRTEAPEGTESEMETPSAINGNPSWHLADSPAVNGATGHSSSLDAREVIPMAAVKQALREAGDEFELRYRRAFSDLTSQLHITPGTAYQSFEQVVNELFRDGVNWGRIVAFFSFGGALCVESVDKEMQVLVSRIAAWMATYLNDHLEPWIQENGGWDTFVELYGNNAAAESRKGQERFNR

In turn, Bax response element registered a binding signal (fold lower affinity than p53-DBD) in the series with p63-DBD of 2.

In the case of BclxL (from UniProt Q07817), in the series with p53 DBD (Homo sapiens), the dissociation constant (Kd) was 5.5 µM.

Consider Jag-1 response element, for which, in the series with p63-DBD, the binding signal (fold lower affinity than p53-DBD) stood at 2.

On to p21 response element, for which the binding signal (fold lower affinity than p53-DBD) with p63-DBD is 2.

The substance “p63 DNA binding domain (from UniProt Q9H3D4 153-388) (domain or fragment)” showed a Kd in series [1] of 38 µM.

(Values after paper PMC4880913.)
